The nature of data set [1]: Molecular assays (HPLC, mass spectrometry, isoelectric focusing, immunoassay) of recovered aerosol versus initial formulation. It counts as physicochemical.
Text: During testing, it was useful to ensure that the composition of the aerosol emanating from the device was the same in all discernable aspects as the formulation filled into the device.
The nature of data set [2]: Droplet size of the thermal inkjet aerosol measured by Malvern laser. The class given is physicochemical. The settings on record: hGH 2 mg/mL, 6% w/w PEG 3000, 0.1% w/v TWEEN 20, unbuffered.
Data set [3] concerns receptors introduced to the cells specific to the test protein. In words: Transgenic cell bioassay of recovered aerosol versus formulation before aerosolization. It counts as cell-based. The settings on record: hGH 2 mg/mL, 6% w/w PEG 3000, 0.1% w/v TWEEN 20; thermal inkjet, aerosol condensed and recovered; FIG. 1. Here is the method:
Proteins were tested with a transgenic cell bioassays with receptors introduced to the cells specific to the test protein. These bioassays were appropriate for indicating the functional effectiveness of the protein. Molecular assays were performed to indicate the primary or tertiary structure of the molecule. Assays used included size exclusion high performance liquid chromatography, reverse phase high performance liquid chromatography, mass spectrometry, isoelectric focusing and immunoassay.
Each protein was formulated at a concentration that was calculated to be of clinical significance such that the plume of aerosol contained the required amount of therapeutic. Humectant was added to the protein formulation which was filled into an inkjet cartridge and fired from the cartridge.
Resistor surfaces and nozzles were inspected by Scanning Electron Microscopy to establish the cleanliness of the surfaces and subsequently the effectiveness of the humectant and surfactant. When humectant and surfactant concentrations were suitable, the aerosol from the device was collected, analyzed, and compared with the solution before aerosolization.
Human growth hormone (hGH) was formulated at 2 mg/mL with 6% w/w PEG 3000 and 0.1% w/v TWEEN® 20. The formulation was unbuffered and no additional salts were added to the formulation. […]

The text below walks through data of patent US20090022669A1, “COMPOSITIONS FOR PROTEIN DELIVERY VIA THE PULMONARY ROUTE” (VAPOTRONICS, INC., priority 2001, published 2009).

Regarding `CN1CCCC1c1cccnc1` (centres unmarked) [Nicotine, reference compound], in data set [1] (nicotine up to 50% w/w in water with 0.1% w/v TWEEN 20), the “comparison of solution during or after dosage (aerosolization)” value is listed as “no measurable difference”.
As to Human growth hormone, the “HPLC comparison of formulation before and after aerosolization” value in data set [1] (hGH 2 mg/mL, 6% w/w PEG 3000, 0.1% w/v TWEEN 20, thermal inkjet, aerosol condensed and recovered) is recorded as “no measurable difference”. In data set [2], the “average droplet size of formulation aerosol” value was determined as 8 μm. The “bioassay comparison of formulation before and after aerosolization” value in data set [3] is “no measurable difference”.
As for Insulin, the “reverse-phase HPLC comparison (retention time, peak shape) before, after recovered and after repeated aerosolization” value in data set [1] (insulin 10 mg/mL, 6% w/v PEG 8000, 0.1% w/v TWEEN 80, thermal inkjet, FIG. 2) is “no measurable differences”.
